For 1 substance, EC50 and fold higher concentration (EC50) than 7H10 results are on record in US20190225703A1.

The target of this experiment is cynomolgus CD73 expressed at the cell surface (cynomolgus). The experiment can be described thus: flow cytometry titration on cynomolgus-CD73-expressing cell line.

In the case of “antibody AD2 (Biolegend Corp, product ref. 344004)”, the EC50 (usually the concentration giving half of the maximal effect) turned out to be 1.15 µg/mL and the fold higher concentration (EC50) than 7H10 was 4 fold.
